Measurements reported in patent US20120238493A1 (INDIANA UNIVERSITY RESEARCH AND TECHNOLOGY, published 2012).
Where no end group is shown, it is not given here. [ ]: non-standard residue; d: D form. Aib = CC(C)(N)C(=O)O

What was measured:
Assay in all cases: cell-based or functional assay
[1] = biological target: glucagon receptor (UniProt P47871 26-477, limits assumed)
[2] = biological target: T1, GIP receptor (UniProt P48546 22-466, limits assumed)
T1 sequence (looked up): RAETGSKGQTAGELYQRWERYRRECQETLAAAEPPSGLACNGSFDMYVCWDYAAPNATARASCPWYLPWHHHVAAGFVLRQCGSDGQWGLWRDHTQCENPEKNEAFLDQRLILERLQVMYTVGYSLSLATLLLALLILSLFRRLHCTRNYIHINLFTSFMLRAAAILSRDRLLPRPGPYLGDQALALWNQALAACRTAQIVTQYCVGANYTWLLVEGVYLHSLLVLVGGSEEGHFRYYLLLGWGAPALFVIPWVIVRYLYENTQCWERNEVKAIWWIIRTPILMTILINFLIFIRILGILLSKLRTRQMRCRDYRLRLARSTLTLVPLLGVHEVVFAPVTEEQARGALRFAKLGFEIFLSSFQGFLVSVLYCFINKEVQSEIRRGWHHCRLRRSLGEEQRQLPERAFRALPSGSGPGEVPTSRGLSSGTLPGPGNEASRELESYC

[3] = biological target: GLP-1 receptor (UniProt P43220 24-463, limits assumed)
Sequence of GLP-1 receptor (P43220 24-463 limits assumed): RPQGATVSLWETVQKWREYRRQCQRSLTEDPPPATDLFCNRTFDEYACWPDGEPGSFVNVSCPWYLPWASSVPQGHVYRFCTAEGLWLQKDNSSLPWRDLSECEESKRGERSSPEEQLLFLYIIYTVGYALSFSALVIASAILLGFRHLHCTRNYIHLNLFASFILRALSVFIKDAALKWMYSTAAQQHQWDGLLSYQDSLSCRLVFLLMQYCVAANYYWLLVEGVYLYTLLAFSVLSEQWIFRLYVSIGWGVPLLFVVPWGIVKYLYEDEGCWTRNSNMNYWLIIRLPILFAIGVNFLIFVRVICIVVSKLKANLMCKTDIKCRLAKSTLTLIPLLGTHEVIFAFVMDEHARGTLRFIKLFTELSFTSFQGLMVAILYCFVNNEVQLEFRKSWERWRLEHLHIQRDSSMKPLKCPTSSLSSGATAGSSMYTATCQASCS

Sequence of glucagon receptor (P47871 26-477 limits assumed): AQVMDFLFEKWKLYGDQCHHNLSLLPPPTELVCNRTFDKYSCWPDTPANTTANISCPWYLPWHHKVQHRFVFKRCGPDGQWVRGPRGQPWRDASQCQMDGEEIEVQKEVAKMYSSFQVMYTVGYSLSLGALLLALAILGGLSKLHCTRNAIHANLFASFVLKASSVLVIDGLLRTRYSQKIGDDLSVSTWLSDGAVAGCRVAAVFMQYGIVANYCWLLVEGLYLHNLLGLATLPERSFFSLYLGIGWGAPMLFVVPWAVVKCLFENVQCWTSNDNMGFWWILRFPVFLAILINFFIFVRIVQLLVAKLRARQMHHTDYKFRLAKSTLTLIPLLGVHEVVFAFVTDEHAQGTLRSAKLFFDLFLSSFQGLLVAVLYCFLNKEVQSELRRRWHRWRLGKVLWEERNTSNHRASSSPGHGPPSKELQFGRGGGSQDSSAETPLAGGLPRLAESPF

B1: peptide of SEQ ID NO: 230 (peptide)
peptide: H[Aib]QGTFTSDYSIYLDEKRAKEFVCWLLAGGPSSGAPPPSK-NH2
modifications: N-terminus assumed
SMILES: CC[C@H](C)[C@H](NC(=O)[C@H](CO)NC(=O)[C@H](Cc1ccc(O)cc1)NC(=O)[C@H](CC(=O)O)NC(=O)[C@H](CO)NC(=O)[C@@H](NC(=O)[C@H](Cc1ccccc1)NC(=O)[C@@H](NC(=O)CNC(=O)[C@H](CCC(N)=O)NC(=O)C(C)(C)NC(=O)[C@@H](N)Cc1c[nH]cn1)[C@@H](C)O)[C@@H](C)O)C(=O)N[C@@H](Cc1ccc(O)cc1)C(=O)N[C@@H](CC(C)C)C(=O)N[C@@H](CC(=O)O)C(=O)N[C@@H](CCC(=O)O)C(=O)N[C@@H](CCCCN)C(=O)N[C@@H](CCCNC(=N)N)C(=O)N[C@@H](C)C(=O)N[C@@H](CCCCN)C(=O)N[C@@H](CCC(=O)O)C(=O)N[C@@H](Cc1ccccc1)C(=O)N[C@H](C(=O)N[C@@H](CS)C(=O)N[C@@H](Cc1c[nH]c2ccccc12)C(=O)N[C@@H](CC(C)C)C(=O)N[C@@H](CC(C)C)C(=O)N[C@@H](C)C(=O)NCC(=O)NCC(=O)N1CCC[C@H]1C(=O)N[C@@H](CO)C(=O)N[C@@H](CO)C(=O)NCC(=O)N[C@@H](C)C(=O)N1CCC[C@H]1C(=O)N1CCC[C@H]1C(=O)N1CCC[C@H]1C(=O)N[C@@H](CO)C(=O)N[C@@H](CCCCN)C(N)=O)C(C)C
EC50 (cAMP reporter) [1]: 1.64 nM | EC50 (cAMP reporter) [2]: 0.164 nM | EC50 (cAMP reporter) [3]: 0.222 nM
